Data as given in patent publication US20220267442A1.

Biological target: TGFβ1 (human) (UniProt P01137)
Assay: SPR

TGFβ1 (human), sequence (P01137 279-390): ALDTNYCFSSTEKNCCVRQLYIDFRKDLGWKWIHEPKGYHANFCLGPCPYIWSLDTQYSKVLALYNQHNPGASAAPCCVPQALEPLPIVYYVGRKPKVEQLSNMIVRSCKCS

Kd: 0.0266 µM
Substance: αTGF-β (1D11)
